Data reported in patent US9127040B2, “Regulation of sodium channels by PLUNC proteins” (The University of North Carolina at Chapel Hill, priority 2011, dated 2015).

Biological target: T1, α, β and γENaC subunits (Rattus norvegicus, UniProt P37089+P37090+P37091)
T1 construct: expressed in transfected cells; host or cells: Xenopus oocytes (cRNA injection; with or without V5-SPLUNC1 and CAP2)
T1 sequence (P37089 1-698): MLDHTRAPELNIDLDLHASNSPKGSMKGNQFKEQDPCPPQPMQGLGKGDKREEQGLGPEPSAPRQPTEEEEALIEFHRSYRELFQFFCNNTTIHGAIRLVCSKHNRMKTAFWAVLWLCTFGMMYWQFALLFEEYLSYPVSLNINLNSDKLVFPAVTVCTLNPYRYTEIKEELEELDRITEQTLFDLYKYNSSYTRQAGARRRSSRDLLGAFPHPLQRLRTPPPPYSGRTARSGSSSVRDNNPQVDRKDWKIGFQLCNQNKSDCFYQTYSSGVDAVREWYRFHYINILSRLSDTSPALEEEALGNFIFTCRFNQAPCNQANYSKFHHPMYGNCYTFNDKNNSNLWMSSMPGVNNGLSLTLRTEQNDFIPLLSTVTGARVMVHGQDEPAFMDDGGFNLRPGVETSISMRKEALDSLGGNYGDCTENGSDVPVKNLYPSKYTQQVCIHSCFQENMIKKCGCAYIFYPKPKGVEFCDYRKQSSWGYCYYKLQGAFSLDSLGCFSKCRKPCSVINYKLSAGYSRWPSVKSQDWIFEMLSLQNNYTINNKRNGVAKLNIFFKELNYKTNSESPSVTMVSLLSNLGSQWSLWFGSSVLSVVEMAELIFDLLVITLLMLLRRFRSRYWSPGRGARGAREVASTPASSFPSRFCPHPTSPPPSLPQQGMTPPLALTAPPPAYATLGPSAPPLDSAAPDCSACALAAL
T1 sequence (P37090 1-638): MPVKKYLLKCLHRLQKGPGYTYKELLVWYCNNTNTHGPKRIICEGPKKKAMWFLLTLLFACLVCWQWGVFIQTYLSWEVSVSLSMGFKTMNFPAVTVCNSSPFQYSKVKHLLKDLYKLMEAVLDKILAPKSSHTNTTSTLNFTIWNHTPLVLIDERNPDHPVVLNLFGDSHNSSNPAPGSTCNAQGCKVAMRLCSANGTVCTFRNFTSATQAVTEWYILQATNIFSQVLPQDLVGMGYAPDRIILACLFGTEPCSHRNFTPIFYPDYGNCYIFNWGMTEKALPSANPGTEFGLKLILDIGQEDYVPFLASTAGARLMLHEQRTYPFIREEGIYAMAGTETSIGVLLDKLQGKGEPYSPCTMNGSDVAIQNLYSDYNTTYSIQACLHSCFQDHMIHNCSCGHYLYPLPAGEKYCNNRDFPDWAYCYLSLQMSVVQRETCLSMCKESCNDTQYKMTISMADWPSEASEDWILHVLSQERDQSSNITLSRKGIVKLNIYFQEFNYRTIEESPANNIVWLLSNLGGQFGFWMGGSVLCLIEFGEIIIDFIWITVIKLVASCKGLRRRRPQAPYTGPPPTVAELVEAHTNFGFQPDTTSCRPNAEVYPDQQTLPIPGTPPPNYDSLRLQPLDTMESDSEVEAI
T1 sequence (P37091 1-650): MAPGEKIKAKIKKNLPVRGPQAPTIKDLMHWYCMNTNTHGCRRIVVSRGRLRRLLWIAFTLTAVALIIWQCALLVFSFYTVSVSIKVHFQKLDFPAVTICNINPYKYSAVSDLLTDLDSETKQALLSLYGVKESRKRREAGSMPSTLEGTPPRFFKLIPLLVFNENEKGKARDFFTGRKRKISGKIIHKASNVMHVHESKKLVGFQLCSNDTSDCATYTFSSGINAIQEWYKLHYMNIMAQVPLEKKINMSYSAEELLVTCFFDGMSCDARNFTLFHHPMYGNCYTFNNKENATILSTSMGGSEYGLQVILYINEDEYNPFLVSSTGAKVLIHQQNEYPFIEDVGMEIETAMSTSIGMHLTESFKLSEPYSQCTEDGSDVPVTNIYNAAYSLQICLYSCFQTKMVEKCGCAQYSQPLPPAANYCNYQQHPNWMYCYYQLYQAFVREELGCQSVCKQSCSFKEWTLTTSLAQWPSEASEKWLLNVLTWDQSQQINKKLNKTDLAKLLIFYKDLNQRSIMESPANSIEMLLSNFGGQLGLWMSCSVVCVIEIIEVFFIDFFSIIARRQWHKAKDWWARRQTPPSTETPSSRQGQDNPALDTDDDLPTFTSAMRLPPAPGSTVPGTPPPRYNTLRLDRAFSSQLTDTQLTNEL
Test: Co-immunoprecipitation of V5-tagged SPLUNC1 with HA-tagged ENaC subunits in Xenopus oocytes
Assay type: binding
Conditions: V5-tagged SPLUNC1, anti-HA immunoprecipitation
Method: Xenopus oocytes were injected with either HA-N-Terminus or V5-C-Terminus (HA-NT/V5-CT) tagged subunits in combination with wild type (WT) untagged rat αβγENaC subunits (0.3 ng cRNA each) with or without V5-tagged SPLUNC1 and CAP2 (1 ng cRNA each). After 24 h, 40 eggs per experimental condition were lysed with buffer containing (in mM): 20 Tris, 50 NaCl, 50 NaF, 10 β-glycerophosphate, 5 Na4P2O7 pyrophosphate, 1 EDTA, pH 7.5 and protease inhibitors (complete, Roche), aprotinin (Sigma). Cell lysates were prepared by passing the eggs through a 27G1/2 needle twice and by centrifugation at 3,600 rpm for 10 minutes at 4° C. Supernatants were transferred to new tubes and samples were spun at 14,000 rpm for 20 minutes at 4° C. Supernatants were discarded and pellets were solubilized in (mM) 50 Tris, 100 NaCl, 0.1% Triton X-100, 0.1% NP-40, 20 NaF, 10 Na4P2O7, 10 EDTA+protease inhibitor cocktail (Sigma), pH 7.5. Total inputs were taken from whole cell samples representing 4% of total protein. Solubilized proteins were incubated with 50 μl of protein A and 5 μl of anti-HA antibody (Covance) overnight while tumbling at 4° C. Samples were washed three times with (mM) 150 NaCl 50 Tris pH 7.5 buffer. Laemmli buffer was added and samples were loaded on a 15% gradient Tris-glycine gel after incubation for 10 minutes at 96° C. […]

B1: SPLUNC1: human SPLUNC1 (SEQ ID NO:1), 256 amino acid secreted PLUNC family protein; rSPLUNC1 is the purified V5/6His-tagged recombinant form (protein, listed as Homo sapiens)
chain: MFQTGGLIVFYGLLAQTMAQFGGLPVPLDQTLPLNVNPALPLSPTGLAGSLTNALSNGLLSGGLLGILENLPLLDILKPGGGTSGGLLGGLLGKVTSVIPGLNNIIDIKVTDPQLLELGLVQSPDGHRLYVTIPLGIKLQVNTPLVGASLLRLAVKLDITAEILAVRDKQERIHLVLGDCTHSPGSLQISLLDGLGPLPIQGLLDSLTGILNKVLPELVQGNVCPLVNEVLRGLDITLVHDIVNMLIHGLQFVIKV
modifications: V5/6His tag in recombinant form
notes: rSPLUNC1 is the purified V5/6His-tagged recombinant form
- binding to ENaC subunits (co-immunoprecipitation): bound to all three ENaC subunits
